According to patent publication US20240254182A1 (PROVINCIAL HEALTH SERVICES AUTHORITY, published 2024):
Where a chain is given by its changes, count along the chain named.

Columns and labels:
[1] = target: T1, WT G-CSFR(Ig-CRH), purified, tag cleaved (human, UniProt Q99062 26-331); assay: SPR (Biacore T200), WT receptor amine-coupled, cytokine injected
T1 construct: also called G-CSFRWT; wild type G-CSFR(Ig-CRH)
T1 chain: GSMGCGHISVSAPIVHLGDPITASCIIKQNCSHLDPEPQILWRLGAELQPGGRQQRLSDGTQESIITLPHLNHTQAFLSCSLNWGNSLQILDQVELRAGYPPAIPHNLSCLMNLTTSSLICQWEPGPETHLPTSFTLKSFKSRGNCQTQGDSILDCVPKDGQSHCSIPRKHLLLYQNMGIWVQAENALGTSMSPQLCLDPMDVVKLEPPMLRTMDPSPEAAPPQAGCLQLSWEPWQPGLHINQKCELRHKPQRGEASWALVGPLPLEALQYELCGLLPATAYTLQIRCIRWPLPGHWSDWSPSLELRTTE
Description: (§1) The SPR binding assays were carried out on a Biacore T200 instrument (GE Healthcare, Mississauga, ON, Canada) with PBS-T (PBS+0.05% (v/v) Tween 20) running buffer at a temperature of 25° C. CM5 Series S sensor chip, Biacore amine coupling kit (NHS, EDC and 1 M ethanolamine), and 10 mM sodium acetate buffers were all purchased from GE Healthcare. PBS running buffer with 0.05% Tween20 (PBS-T) was purchased from Teknova Inc. (Hollister, CA). Designs were assessed in three different immobilization orientations.
To assess binding affinity of G-CSFE to G-CSFRWT, recombinant G-CSFRWT purified as described in Example 5 was captured as described above in this Example. Using single-cycle kinetics, six concentrations of a two-fold dilution series of each G-CSFE mutant starting at […] with a blank buffer control were sequentially injected as described above. The same sample titration was also performed on a reference cell with no variants captured. The G-CSFRWT surface was regenerated as described above.
(§2) Double-referenced sensorgrams from duplicate or triplicate repeat injections were analyzed using Biacore™ T200 Evaluation Software v3.0 and fit to the 1:1 Langmuir binding model.

[2] = target: T2, design 300 G-CSFR(Ig-CRH)E, tag cleaved (human, UniProt Q99062 26-331); assay: SPR, G-CSFRE amine-coupled, G-CSFE injected, single-cycle kinetics
T2 chain: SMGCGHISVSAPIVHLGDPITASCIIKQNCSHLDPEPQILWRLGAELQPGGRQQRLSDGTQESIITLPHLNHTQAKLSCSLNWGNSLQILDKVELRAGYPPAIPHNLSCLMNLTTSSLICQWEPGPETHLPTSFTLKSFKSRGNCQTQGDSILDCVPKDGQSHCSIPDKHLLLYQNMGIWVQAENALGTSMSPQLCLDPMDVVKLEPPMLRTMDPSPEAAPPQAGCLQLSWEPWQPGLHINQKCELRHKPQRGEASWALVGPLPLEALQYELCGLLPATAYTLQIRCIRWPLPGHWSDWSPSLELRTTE
Description: as §1
(§3) To determine binding affinity of G-CSFE to G-CSFRE the G-CSFRE mutant was captured by standard amine coupling as described by the manufacturer (GE LifeSciences). Briefly, immediately after EDC/NHS activation, a 5 μg/mL solution of G-CSFRE in 10 mM NaOAc, pH 5.0, was injected at a flow rate of 5 μL/min until a receptor density of ˜700-900 RU was reached. The remaining active groups were quenched by a 420 s injection of 1 M ethanolamine hydrochloride-NaOH pH 8.5 at 10 μL/min. Using single-cycle kinetics, six concentrations of a two-fold dilution series of the corresponding G-CSFE mutant starting at 200 nM with a blank buffer control were sequentially injected at 25 μL/min for 300 s with a 1800 s dissociation phase, resulting in a set of sensorgrams with a buffer blank reference. The same sample titration was also performed on a reference cell with no variants captured. The chip was regenerated to prepare for the next injection cycle by one pulse of 10 mM glycine/HCl, pH 2.0, for 30 s at 30 μL/min.
as §2

[3] = target: T3, design 304 G-CSFR(Ig-CRH)E, tag cleaved (human, UniProt Q99062 26-331); assay: as above
T3 chain: T2 chain with R42E, K76F, K92Q, E94K
Description: as §1, §3, §2

[4] = target: T4, design 303 G-CSFR(Ig-CRH)E, tag cleaved (human, UniProt Q99062 26-331); assay: SPR, G-CSFRE amine-coupled, G-CSFE injected; steady state derived affinity constant
T4 chain: T2 chain with K76F, K92Q, E94K
Description: as §3, §2
Kinetic-derived affinity constants (KD) where obtained by fitting the association and dissociation phases of the curves. The KD of WT G-CSF for WT G-CSFR(Ig-CRH) ranged between 1.8-2.5E-9. For the cases in which the kinetic parameters could not be fit an attempt was made to derive a steady state affinity constant. In those cases, the KD fold change was calculated from the steady state derived KD for the WT G-CSF:WT G-CSFR(Ig-CRH) pair and is indicated in Table 7.

[5] = target: T5, combination design 401 G-CSFR(Ig-CRH)E with N-terminal hexahistidine tag (human, UniProt Q99062 25-331); assay: co-expression in insect cells, pulldown via the Twin Strep tag on G-CSF, reducing SDS-PAGE; G-CSFR(Ig-CRH) format
T5 chain: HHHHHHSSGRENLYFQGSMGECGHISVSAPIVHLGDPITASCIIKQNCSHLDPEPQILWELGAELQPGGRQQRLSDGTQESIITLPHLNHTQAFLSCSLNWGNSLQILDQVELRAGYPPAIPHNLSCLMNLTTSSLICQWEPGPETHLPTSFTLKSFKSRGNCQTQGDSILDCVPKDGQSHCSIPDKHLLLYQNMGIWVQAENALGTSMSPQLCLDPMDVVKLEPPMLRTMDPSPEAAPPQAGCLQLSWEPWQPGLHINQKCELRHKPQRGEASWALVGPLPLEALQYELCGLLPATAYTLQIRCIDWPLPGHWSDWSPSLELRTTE
Description: (§4) The P2 viral stocks were tested for protein expression in small-scale. P2 virus was used to co-infect G-CSFE mutants with their corresponding G-CSFRE mutant in Trichoplusia ni (Tni) cells in 12-well plates. Separate co-infections for each design mutant were performed using the P2 stocks of G-CSFWT and GCSFR(CRH)WT, as well as for G-CSFE mutants alone. For each reaction, 2 mL of healthy log-phase Tni at 2×10⁶ cells ml⁻¹ was inoculated with 20 μl P2 virus. Plates were incubated at 27° C. for approximately 70 h with shaking at 135 rpm. […] Briefly, to each 1.8 mL reaction supernatant 0.2 mL 10× HEPES Buffered Saline (HBS: 20 mM HEPES pH8, 150 mM NaCl) was added to 1×, 20 μl bed volume (b.v) of purification beads added and reactions incubated for 30 minutes with end-over-end mixing at 24° C. An additional 20 μl b.v of purification beads was added followed by a second 30 minute incubation. Beads were pelleted by centrifugation at 2200 rpm for 3 minutes, supernatant was removed and the beads washed with 1× HBS buffer.
(§5) The co-expression assay with pulldown through the cytokine TST tag was performed as described above in Example 2, with the difference that the receptor constructs contained the Ig and CRH domains (residues 2-308, Table 1) referred to as G-CSFR(Ig-CRH).

[6] = target: T6, combination design 402 G-CSFR(Ig-CRH)E with N-terminal hexahistidine tag (human, UniProt Q99062 25-331); assay: as above
T6 chain: T5 chain with D186E, Q193E, D307E
Description: as §4, §5

[7] = target: T7, site II design 15 G-CSFR(CRH)E with N-terminal hexahistidine tag (human); assay: WT G-CSF co-expressed with variant G-CSFR(CRH) in insect cells, pulldown via the Twin Strep tag on G-CSF, reducing SDS-PAGE
T7 construct: also called design #15 G-CSFRE
T7 chain: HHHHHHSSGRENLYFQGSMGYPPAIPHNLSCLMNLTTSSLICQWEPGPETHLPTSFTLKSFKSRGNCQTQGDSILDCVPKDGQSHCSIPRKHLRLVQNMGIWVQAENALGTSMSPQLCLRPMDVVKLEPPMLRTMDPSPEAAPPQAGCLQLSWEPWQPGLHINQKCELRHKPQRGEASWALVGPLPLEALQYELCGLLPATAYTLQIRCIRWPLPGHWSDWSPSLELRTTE
Description: as §4

[8] = target: T8, site II design 30 G-CSFR(CRH)E with N-terminal hexahistidine tag (human, UniProt Q99062 120-331); assay: as above
T8 construct: also called design #30 G-CSFRE
T8 chain: T7 chain with R90D, R94L, V96Y, R120D
Description: as §4

[9] = target: T9, site II design 34 G-CSFR(CRH)E with N-terminal hexahistidine tag (human, UniProt Q99062 120-331); assay: as above
T9 construct: also called design #34 G-CSFRE
T9 chain: T7 chain with R64E, R90D, R94L, V96Y, R120D
Description: as §4

[10] = target: T10, site II design 35 G-CSFR(CRH)E with N-terminal hexahistidine tag (human); assay: as above
T10 construct: also called design #35 G-CSFRE
T10 chain: T7 chain with R64E, R94E, V96Y, Q97E, R120D
Description: as §4

B1: design 300 G-CSFE, tag cleaved (ligand)
chain: TPLGPASSLPQSFLLKCLEQVRKIQGDGAALQEKLCATYDDCHPEELVLLGHSLGIPWAPLSSCPSQALQLAGCLSQLHSGLFLYQGLLQALEGISPELGPTLDTLQKDVARFATTIWQQMEELGMAPALQPTQGAMPAFASAFQRRAGGVLVASHLQSFLEVSYRVLRHLAQAAAENLYFQ
notes: also called design 300 G-CSFE mutant
With B1 the binding result [1] was “no binding” and the “KD fold change (against WT:WT)” value [2] was 194 fold.

B2: design 304 G-CSFE, tag cleaved (ligand)
chain: B1 chain with D40K, D41L, E46R, R147E
In the case of B2, the binding result [1] is reported as “no binding” and the “KD fold change (against WT:WT)” value [3] is reported as 6.5 fold.

B3: design 303 G-CSFE, tag cleaved (ligand)
chain: B1 chain with D40K, D41L, R147E
notes: also called design 303 G-CSFE mutant
In the case of B3, the binding result [1] is reported as “no binding” and the “KD fold change (against WT:WT)” value [4] is reported as 2.2 fold.

B4: WT G-CSF with C-terminal Twin Strep tag (ligand)
chain: not shown
notes: construct of the insect-cell co-expression pulldown; also called G-CSFWT
B4: no binding [5]; no binding [6]; no binding [7]. B4: no binding [8]; no binding [9]; no binding [10].
